Measurements: patent publication US10058586B2, “Use of human small leucine zipper protein in adipocyte differentiation procedure” (Korea University Research and Business Foundation, priority 2013, dated 2018)

Target: T1, PPARγ2 (Homo sapiens, UniProt P37231)
T1 sequence (P37231 1-505): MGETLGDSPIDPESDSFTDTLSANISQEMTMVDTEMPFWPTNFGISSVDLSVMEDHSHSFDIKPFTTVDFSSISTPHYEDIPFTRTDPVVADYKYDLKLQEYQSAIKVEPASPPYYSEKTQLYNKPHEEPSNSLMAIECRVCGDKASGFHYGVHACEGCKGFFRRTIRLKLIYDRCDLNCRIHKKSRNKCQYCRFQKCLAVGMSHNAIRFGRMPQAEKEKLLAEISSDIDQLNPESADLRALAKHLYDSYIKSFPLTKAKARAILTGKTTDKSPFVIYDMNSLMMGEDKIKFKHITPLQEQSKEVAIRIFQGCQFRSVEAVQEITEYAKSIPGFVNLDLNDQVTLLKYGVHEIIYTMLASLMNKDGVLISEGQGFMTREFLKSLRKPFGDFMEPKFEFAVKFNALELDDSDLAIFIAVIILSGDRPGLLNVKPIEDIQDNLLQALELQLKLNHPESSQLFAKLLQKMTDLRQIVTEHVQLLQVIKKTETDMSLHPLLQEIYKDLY
Assay: FABP4 enhancer-luciferase reporter analysis of PPARγ2 transcriptional activity in 293T cells
Format: cell-based
Design: expressed in transfected cells; host or cells: 293T cells
Settings: sLZIP 0.1 to 0.5 μg, 10 nM RZD
Protocol: Appropriately transfected cells were washed with cold PBS twice, and a reporter lysis buffer (Promega) was used and lysed in a culture dish. Luciferase analysis was performed using a luciferase analysis system (Promega Corporation, Madison, Wis.). A luciferase activity was recorded in Luminometer 20/20^n (Turner BioSystems, Sunnyvale, Calif.) according to instructions of the manufacturer. The luciferase activity was normalized to a β-galactosidase activity. For β-galactosidase analysis, CMV-β-galactosidase was transfected with luciferase reporter genes. All pieces of data were represented as mean±standard deviation of the results from at least three independent experiments.
A DNA binding ability of sLZIP with various elements in the FABP4 enhancer region was examined. For this purpose, recombinant His-sLZIP fusion proteins (3 μg) were incubated with γ-^32P-labeled oligonucleotide probes containing expected CREB binding elements (FIG. 7B). The γ-^32P-labeled oligonucleotide probes were incubated while an amount of purified His-sLZIPs was increased. […]
Adipocyte differentiation is a well-regulated procedure. […] A promoter activity was measured according to luciferase analysis (FIG. 8B). […] Total RNA was extracted from the cells, and an mRNA expression level of mouse LZIPs was measured using RT-PCR analysis. […]

B1: sLZIP: human small leucine-zipper protein, isoform of LZIP, 354 amino acids, no transmembrane domain; GenBank FJ263669, SEQ ID NO: 1 (protein, listed as Homo sapiens)
chain: MELELDAGDQDLLAFLLEESGDLGTAPDEAVRAPLDWALPLSEVPSDWEVDDLLCSLLSPPASLNILSSSNPCLVHHDHTYSLPRETVSMDLESESCRKEGTQMTPQHMEELAEQEIARLVLTDEEKSLLEKEGLILPETLPLTKTEEQILKRVRRKIRNKRSAQESRRKKKVYVGGLESRVLKYTAQNMELQNKVQLLEEQNLSLLDQLRKLQAMVIEISNKTSSSSMYSSDTRGSLPAEHGVLSRQLRALPSEDPYQLELPALQSEVPKDSTHQWLDGSDCVLQAPGNTSCLLHYMPQAPSAEPPLEWPFPDLFSEPLCRGPILPLQANLTRKGGWLPTGSPSVILQDRYSG
- transcriptional activity of PPARγ2 (FABP4 enhancer-luciferase): decreased the transcriptional activity of PPARγ2 in a concentration-dependent manner
